Here are results for two substances from paper doi:10.64898/2025.12.02.691773.

This experiment has as its target DH-CRBN (human) (UniProt Q96SW2). The experiment is described as follows: split reporter. The arrangement: unit not given beside the values.

Turning to “CHD8 full domain (FD) (from UniProt Q9HCK8 1-2581) (domain or fragment)”, the AUC of the growth curve with pomalidomide amounted to 5130 and the AUC of the growth curve without compound (DMSO) was found to be 3220.

In the case of “SPART FD (from UniProt Q8N0X7 1-666) (domain or fragment)”, the AUC of the growth curve with pomalidomide was 2800 and the AUC of the growth curve without compound (DMSO) was determined as 1780.
